# Reference: patent US20230416388A1 (Bristol-Myers Squibb, published 2023)
# T1: human GITR (on activated human T cells) (human, UniProt Q9Y5U5 26-241)
# T1 construct: also called glucocorticoid-inducible TNF receptor; TNFRSF18
# T1 sequence: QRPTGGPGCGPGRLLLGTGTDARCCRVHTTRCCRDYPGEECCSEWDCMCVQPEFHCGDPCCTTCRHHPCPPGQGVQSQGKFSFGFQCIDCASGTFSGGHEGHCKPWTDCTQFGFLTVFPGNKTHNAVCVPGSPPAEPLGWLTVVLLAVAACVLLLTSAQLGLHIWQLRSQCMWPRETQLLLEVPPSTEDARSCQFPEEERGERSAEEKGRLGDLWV
# Tests used:
# [1] = molecular target: mouse GITR (on activated mouse T cells) (mouse) (UniProt O35714); test: in vitro binding on activated mouse CD4+ T cells
# mouse GITR (on activated mouse T cells) (mouse), sequence (O35714 20-228): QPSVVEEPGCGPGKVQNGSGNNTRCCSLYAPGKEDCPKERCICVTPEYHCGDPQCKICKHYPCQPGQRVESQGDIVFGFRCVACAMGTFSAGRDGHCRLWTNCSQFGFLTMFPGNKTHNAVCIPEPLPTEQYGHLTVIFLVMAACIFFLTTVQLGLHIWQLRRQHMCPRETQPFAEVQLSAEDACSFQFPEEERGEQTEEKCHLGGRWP
# [2] = molecular target: mouse GITR (on activated mouse T cells) (mouse) (UniProt O35714); test: in vitro binding on activated mouse CD8+ T cells
# [3] = molecular target: T1, human GITR (on activated human T cells); test: in vitro binding on activated human CD4+ T cells
# [4] = molecular target: T1, human GITR (on activated human T cells); test: in vitro binding on activated human CD8+ T cells
Molecule,EC50 [1] [nM],EC50 [2] [nM],EC50 [3] [nM],EC50 [4] [nM]
DTA1-mIgG2a (antibody),0.14,0.17,–,–
DTA1-mIgG2b (antibody),0.33,0.33,–,–
"28F3.IgG1 (antibody, V domains shown, Fully human IgG1 agonist antibody to GITR; also called GITR Ab; anti-GITR agonist Ab 28F3.IgG1) VH: QVQLVESGGGVVQPGRSLRLSCAASGFTFSSYGMHWVRQAPGKGLEWVAVIWYEGSNKYYADSVKGRFTISRDNSKNTLYLQMNSLRAEDTAVYYCARGGSMVRGDYYYGMDVWGQGTTVTVSS VL: AIQLTQSPSSLSASVGDRVTITCRASQGISSALAWYQQKPGKAPKLLIYDASSLESGVPSRFSGSGSGTDFTLTISSLQPEDFATYYCQQFNSYPYTFGQGTKLEIKR",–,–,0.37,0.44
